“And” between values parts separate entries of the source, which are not always exact repeats. Equal entries are not always repeated.
Biological target: T1, LpoB(sol) (signal sequence and lipid anchor of LpoB replaced by an oligohistidine tag)
T1 construct: also called His-LpoB(sol); source: E. coli BL21(DE3) with pET28LpoB, purified (HisTrap, thrombin, HiTrap Q flow-through, Superdex 200)
Assay: SPR; IBIS-MX96; PBP1B Gly55AzF immobilised through its azide on a SensEye P-NH2 sensor coated with sulfo-dibenzylcyclooctyne-NHS ester, blocked with azidoethanol; LpoB injected at different concentrations; running buffer 10 mM Tris/maleate pH 7.5, 150 mM NaCl, 0.05 % Triton X-100; KD from maximum RU against concentration, one-site saturation
Settings: both partners purified

- Kd: 710 to 970 nM and 840 nM
B1: PBP1B Gly55AzF (N-terminal His6-tagged PBP1Bγ with p-azidophenylalanine in place of Gly55) (enzyme)
chain: MPRKGKGKGKFRKPRGKRGWLWLLLKLAIVFAVLIAIYGVYLDQKIRSRIDGKVWQLPAAVYGRMVNLEPDMTISKNEMVKLLEATQYRQVSKMTRPGEFTVQANSIEMIRRPFDFPDSKEGQVRARLTFDGDHLATIVNMENNRQFGFFRLDPRLITMISSPNGEQRLFVPRSGFPDLLVDTLLATEDRHFYEHDGISLYSIGRAVLANLTAGRTVQGASTLTQQLVKNLFLSSERSYWRKANEAYMALIMDARYSKDRILELYMNEVYLGQSGDNEIRGFPLASLYYFGRPVEELSLDQQALLVGMVKGASIYNPWRNPKLALERRNLVLRLLQQQQIIDQELYDMLSARPLGVQPRGGVISPQPAFMQLVRQELQAKLGDKVKDLSGVKIFTTFDSVAQDAAEKAAVEGIPALKKQRKLSDLETAIVVVDRFSGEVRAMVGGSEPQFAGYNRAMQARRSIGSLAKPATYLTALSQPKIYRLNTWIADAPIALRQPNGQVWSPQNDDRRYSESGRVMLVDALTRSMNVPTVNLGMALGLPAVTETWIKLGVPKDQLHPVPAMLLGALNLTPIEVAQAFQTIASGGNRAPLSALRSVIAEDGKVLYQSFPQAERAVPAQAAYLTLWTMQQVVQRGTGRQLGAKYPNLHLAGKTGTTNNNVDTWFAGIDGSTVTITWVGRDNNQPTKLYGASGAMSIYQRYLANQTPTPLNLVPPEDIADMGVDYDGNFVCSGGMRILPVWTSDPQSLCQQSEMQQQPSGNPFDQSSQPQQQPQQQPAQQEQKDSDGVAGWIKDMFGSN
modifications: p-azidophenylalanine in place of Gly55; coupled through this azide to dibenzylcyclooctyne on the chip surface
